Test results taken from the supplement of paper PMC9170038.

system: MS2 coat protein; assay: apparent KD of MS2 coat protein; higher = weaker reporter binding; conditions: Eterna round: R107; input ligand: arginine 13.2 mM
Protocol: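 RNA-MaP round R107: designed RNA switches with theophylline, tryptophan, arginine or FMN aptamers are transcribed on-chip within common flanks. They are titrated with SNAP-549-labelled MS2 coat protein in RNA-MaP buffer (100 mM Tris pH 7.5, 80 mM KCl, 4 mM MgCl2), without ligand or with the indicated ligand. Median apparent KD per design.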

With “AUAUAUACAUGAGGAUCACCCAUGUUAUUACGAGGACCGGUACGGCCGCCACUCGAUAGAGUAGAAGUAAAUUGUAAUUCAUGUU [JR_ExcTryptoA_Sub016]” the “apparent KD of MS2 coat protein” value was 13.8 nM.

same assay, conditions: Eterna round: R107; input ligand: none

Going from “GGCGCUGCGUCGGCCGCCACUAGCGGGUAAUGGGUGUACAUGAGGAUCACCCAUGUAAUAUGGCCUAGGACCGGGACGUGGCGCC [Moose]” to “GGGCUCGGAGUGCGGCGUGUUCCGCUCCGUCGAGGACCGGUACGGCCGCCACUCGACAUGAGGAUCACCCAUGUCCGAGCGCGCG [#1 Exclusion - Tryptophan A Attempt #6 (HarryS)]”, the “apparent KD of MS2 coat protein” value falls from 427 nM to 21.2 nM (20-fold).

First: AUUAAGGAUAUGUAGAAGGCGGAGAAGAGACGAGGACCGGUACGGCCGCCACUCGUGUUAGUUAACAUGAGGAUCACCCAUGUAA [#06 Tryptophan A Same State]
Second: GGAUAGGACACGGCCGCCACUAGCUAGGAUACUAGCAACAUUUCCUCGCUUGAGGAUCACCCAAGUAGGACCGGGUGUCCUAUCG
The “apparent KD of MS2 coat protein” value of the first is 9.2-fold lower: 60.7 nM for the first, 560 nM for the second.

First: GGACUAACCAGAAGGAGCGGCACAAGCAGAAACUGCAAUCCUCCGCACGAGGAUCACCCGUGUCAGGUAGGUCGCUGGUUAGUCG [ArgBX 28]
Second: AGCAGCUGGUUUCUUUUCUUUACAGCUGCACGAGGACCGGUACGGCCGCCACUCGAGGACAUGAGGAUCACCCAUGUGCCGGUCG
The “apparent KD of MS2 coat protein” value of the first is 2.2-fold higher: 56.8 nM for the first, 25.6 nM for the second.

“GGCCAAAAGGCGGCCGCCACUCAAGAGUAGCAUGGAAAGACAUGAGGAUCACCCAUGUAAAGAAAGAGGACCGGGCCAAAAGGCC” and “CGGCCCUCACCUGAGGAUCACCCGGGUGAUACCAGCCUGGAAACAGGCCCUUGGCAGCACCAGGUCAUCAAAGAUGACCAAGCCG [TheoAX 26 #OpenEnded #AlternativeMS2]” are within 1.5-fold of each other in “apparent KD of MS2 coat protein” value: 117 nM for the first, 97.5 nM for the second.

Going from “GUUUAGAGCUCGGCCGCCACUCAAACAUGAGGAUCACCCAUGUAAAACAUGAGGAUCACCCAUGUGAGGACCGGGAGAAAUAAGA [Exclusion Tryptophan B GF7]” to “GGACUAACCAGAAGGAGCGGCACGCAGAAACUGCAAAAUCCUCCGCACGAGGAUCACCCGUGUCAGGUAGGUCGCUGGUUAGUCG [ArgBX 28]”, the “apparent KD of MS2 coat protein” value falls from 337 nM to 32.2 nM (10-fold).

Going from “UGUAAUGUGGGAAGGAGCGCAUACUUCACAUGAGGAUCACCCAUGUCAAGACGUGAGUCAGUGCAGGUAGGUCGCCUAGUUUAGA [Same State - Arginine B (Freestyle 18)]” to “GCGCGGCGAGUGCGGCGUGUUCCGCUCCGUCGAGGACCGGUACGGCCGCCACUCGACAUGAGGAUCACCCAUGUCGCCGCGCGCG [Exclusion - Tryptophan A Attempt #3]”, the “apparent KD of MS2 coat protein” value falls from 97 nM to 13.3 nM (7.3-fold).

Compared with “UAUAUAUAAACAUGAGGAUCACCCAUGUAACGAGGACCGGUACGGCCGCCACUCGGCCGGCAAGGGAGAGGACGGGAAACCGUCG [ETA NP+V+V2 #27]”, “GUAGCGACGACGGCCGCCACUCACAGGUGAGGGUAGACCAACCUUCACAUGAGGAUCACCCAUGUGAGGACCGGGUUGUCGCUAC [#12 Exclusion Tryptophan B]” is 5.9-fold higher in “apparent KD of MS2 coat protein” value: 13.4 nM for the first, 79 nM for the second.

Compared with “GCCUAGCAUCGAAGGAGCGGGCAUUACGCGCGAAAGCGCGAUGCACGAGGAUCACCCGUGUCCCAGGUAGGUCGCGAUGCUAGGC [SSAB Alternative Aptamer #4 V+V2]”, “GCGAUGGAGCGAAGGAGCGUGCUGGUACAUGAGGAUCACCCAUGUGAACCGCAGCGCUAAGCACAGGUAGGUCGCGCUCCAUCGC [EAB NP+V+V2 #14]” is 18-fold lower in “apparent KD of MS2 coat protein” value: 508 nM for the first, 28.8 nM for the second.

With “UUUACAUGAGGAUCACCCAUGUGCCAUGAUACCAGACAUGAAAAUGUCCCUUGGCAGCAUGAGUGAUAUGCGUCGGAAACGACGC [Jundrov]” the “apparent KD of MS2 coat protein” value was 153 nM.

same assay, conditions: Eterna round: R107; input ligand: theophylline 20 uM

Going from “GGAUUCGGCACGGCCGCCACUGCGGUGGUGUGACAUGAGGAUCACCCAUGUUGUCAUGCGGCCCUUAGGACCGGGUGGCGUUUCC [#1 Exclusion - Tryptophan B Attempt #21 (HarryS)]” to “GGCGCUGCGUCGGCCGCCACUAGCGGGUAAUGGGUGUACAUGAGGAUCACCCAUGUAAUAUGGCCUAGGACCGGGACGUGGCGCC [Moose]”, the “apparent KD of MS2 coat protein” value rises from 76.2 nM to 415 nM (5.4-fold).

Going from “UGUAUGUGAUUUGAUACCAGACCAACUGGUAAUACAUGAGGAUCACCCAUGUAGAUUUGGGUCCCUUGGCAGCAAAUCGCAUACU [SSTheo B #23]” to “UCUGCCGCGGCUCCGAUCCUCCUGUAGUUCCGAGGACCGGUACGGCCGCCACUCGUAGCACAUGAGGAUCACCCAUGUCUUGCGG [Tiqurabira]”, the “apparent KD of MS2 coat protein” value falls from 34.1 nM to 17.5 nM (1.9-fold).

First: UAAAACAUGAGGAUCACCCAUGUAAAAGAUACCAGAGUGAUGAUCCUCCCUUGGCAGCUUAACGCUGAUUGAUUACAAUCAGCGA [Mat - Same State Theophlline A - Mod of Eli - D21]
Second: GGUAGCAGGACUGAUACCAGUCCAGCGAAUCAUACGACGCAACAUGAGGAUCACCCAUGUGACCCUUGGCAGCAGACUGCUACCG [Same State Theophylline B GF 28]
The “apparent KD of MS2 coat protein” value of the first is 5-fold higher: 124 nM for the first, 24.8 nM for the second.

Compared with “AUUUAUAGUUGUGAUACCAGACUUACAUGAGGAUCACCCAUGUUACUUAAAUGUUUUGAUGUCCCUUGGCAGCACUGUUUUUUUA [JR_Nu_ExcTheophyB_Sub029]”, “UAAUAAGUACCGGUCCUCAGAUCCUCAUGACGAGGACCGGUACGGCCGCCACUCGAAACAUGAGGAUCACCCAUGUAAUAAUAAC [Brourdmod03]” is 3.4-fold higher in “apparent KD of MS2 coat protein” value: 22.6 nM for the first, 77 nM for the second.

“GGGCUCGGAGUGCGGCGUGUUCCGCUCCGUCGAGGACCGGUACGGCCGCCACUCGACAUGAGGAUCACCCAUGUCCGAGCGCGCG [#1 Exclusion - Tryptophan A Attempt #6 (HarryS)]” and “UUAUAAGUACCGGUCCUCAGAUCCUCAUGACGAGGACCGGUACGGCCGCCACUCGAAACAUGAGGAUCACCCAUGUAAUAAUAAU [Brourdmod05]” are within 1.5-fold of each other in “apparent KD of MS2 coat protein” value: 41.7 nM for the first, 29.3 nM for the second.

First: ACGACGCAUAGUGAUACCAGUAGAACAUGAGGAUCACCCAUGUCUGUUAUGUACAAAUACUGCCCUUGGCAGCACUAUGCGUCAG [SSTheo B #5]
Second: AUUAAGGAUAUGUAGAAGGCGGAGAAGAGACGAGGACCGGUACGGCCGCCACUCGUGUUAGUUAACAUGAGGAUCACCCAUGUAA [#06 Tryptophan A Same State]
The “apparent KD of MS2 coat protein” value of the first is 6-fold lower: 12.1 nM for the first, 72.3 nM for the second.

Compared with “GGAUAGGACACGGCCGCCACUAGCUAGGAUACUAGCAACAUUUCCUCGCUUGAGGAUCACCCAAGUAGGACCGGGUGUCCUAUCG”, “UGGUACAUGAGGAUCACCCAUGUUCCAGAUACCAGACUCCCGGUGGUCCCUUGGCAGCUGGUGGUACAUGAGGAUCACCCAUGUG [Exclusion Theophylline A GF17]” is 10-fold lower in “apparent KD of MS2 coat protein” value: 446 nM for the first, 44.7 nM for the second.

Going from “GGACUAACCAGAAGGAGCGGCACAAGCAGAAACUGCAAUCCUCCGCACGAGGAUCACCCGUGUCAGGUAGGUCGCUGGUUAGUCG [ArgBX 28]” to “AGCAGCUGGUUUCUUUUCUUUACAGCUGCACGAGGACCGGUACGGCCGCCACUCGAGGACAUGAGGAUCACCCAUGUGCCGGUCG”, the “apparent KD of MS2 coat protein” value falls from 74.6 nM to 40.6 nM (1.8-fold).

“GGCCAAAAGGCGGCCGCCACUCAAGAGUAGCAUGGAAAGACAUGAGGAUCACCCAUGUAAAGAAAGAGGACCGGGCCAAAAGGCC” and “CGGCCCUCACCUGAGGAUCACCCGGGUGAUACCAGCCUGGAAACAGGCCCUUGGCAGCACCAGGUCAUCAAAGAUGACCAAGCCG [TheoAX 26 #OpenEnded #AlternativeMS2]” are within 1.5-fold of each other in “apparent KD of MS2 coat protein” value: 141 nM for the first, 110 nM for the second.

With “ACUGGACAUGAGGAUCACCCAUGUGGCGAUACCAGUUUCAGCGGGAACCCUUGGCAGCGCGGUGCCGGCCAUAGAAGUUCUGGGA [theeternabot_sameState_MS2_Theo_A_39]” the “apparent KD of MS2 coat protein” value was 56.1 nM.
